# Source: publication PMC7195491
# B1: Dpr10 (Defective proboscis extension response 10), extracellular region [Drosophila melanogaster] / DIP-α (Dpr Interacting Protein alpha), extracellular region [Drosophila melanogaster] (parent)
# chain 1: MLTLWTALFCCLTGLAVCYQRQSVSNNNHNNAEAKPTHAPPSHYPHGHKWNEPYFDLTMPRNITSLVGKSAYLGCRVKHLGNKTVAWIRHRDLHILTVGTYTYTTDQRFQTSYHRDIDEWTLQIKWAQQRDAGVYECQISTQPVRSYSVNLNIVVPTATILGGPDLYVDKGSTINLTCIIKFSPEPPTHIFWYHQDKVLSEETSGGRLKFKTIKSEETKSILLIYDADLLHSGKYSCYPSNTEIASIRVHVLQGERPEAMQTNAAPAAVALACWSCHFGQATQAVRVISTMVAALVLLEACSSLLLQSGGGGGCPGGGSPAGGMPTRVREIREKPLTNSLLDPKIPSTTSAERVNNGSRNAR
# chain 2: MPVSAKRLLRNFQFTSCDRNGKMLIHLLLIVSLLEAIGAFQPEFVESISNVSVAVGRDATFTCHVRHLGGYRVGWLKADTKAIQAIHENVITHNPRVTVSHLDQNTWNLHIKAVSEEDRGGYMCQLNTDPMKSQIGFLDVVIPPDFISEDTSSDVIVPEGSSVRLTCRARGYPEPIVTWRREDGNEIVLKDNVGTKTLAPSFRGEVLKLSKISRNEMGSYLCIASNGVPPSVSKRISLSIHFHPVIQVPNQLVGAPLGTDVQIECHVEASPKSINYWIKDTGEMIVTSGKYHVQESSQSMYETKMSMIVRKFQKDDVGSYRCIAKNSLGEVDSSIRLYEIPGPNRNKNPLNGGGKGGGAGGSLDADANDILKQKQQVKVTYQPEDEELQYGSVEDFEAEGGEGGGLTPLSPHVYYTSGNKPATHKPGNSGGNQHLHQQHHHHHHHNNNNNNQQHSGGPGGGPTGGDAGSLGGEMGGITRKPPPYYGGNTEVRGPIDNNEMSSGSGDSRLCRGHHLPILLLPFARLILVRSWHCRHTFLMGLSQACLPGLLLSLL
# Variants of: B1
# Experiment: SPR
# Details: with DIP-α (Dpr Interacting Protein alpha), 25 °C, 10 mM Tris-HCl, pH 7.2, 150 mM NaCl, 1 mM EDTA, 1 mg mL−1 BSA, 0.01% (v/v) Tween-20, analyte 81 to 0.012 μM, three-fold dilution series, parent: 0
row,Variant,ddG [kcal/mol]
1,chain 1 MLTLWTALFCCLTGLAVCYQRQSVSNNNHNNAEAKPTHAPPSHYPHGHKWNEPYFDLTMPRNITSLVGKSAYLGCRVKHLGNKTVAWIRHRDGHILTVGTYTYTTDQRFQTSYHRDIDEWTLQIKWAQQRDAGVYECQISTEPKRSYSVNLNIVVPTATILGGPDLYVDKGSTINLTCIIKFSPEPPTHIFWYHQDKVLSEETSGGRLKFKTIKSEETKSILLIYDADLLHSGKYSCYPSNTEIASIRVHVLQGERPEAMQTNAAPAAVALACWSCHFGQATQAVRVISTMVAALVLLEACSSLLLQSGGGGGCPGGGSPAGGMPTRVREIREKPLTNSLLDPKIPSTTSAERVNNGSRNAR [chain 1 L93G Q142E V144K],> 3.5
